Measured values taken from article doi:10.1101/2024.03.20.585881 (bioRxiv, 2024).

Key:
3xFLAG-eGFP-Axin1 = 3xFLAG-eGFP-Axin1 (UniProt O15169 1-862); test: affinity purification with mass spectrometry
3xFLAG-mScarlet-APC = 3xFLAG-mScarlet-APC (human (endogenous in HEK293), UniProt P25054 1-2843); test: affinity purification with mass spectrometry
3xFLAG-mScarlet-APC, sequence (P25054 whole entry): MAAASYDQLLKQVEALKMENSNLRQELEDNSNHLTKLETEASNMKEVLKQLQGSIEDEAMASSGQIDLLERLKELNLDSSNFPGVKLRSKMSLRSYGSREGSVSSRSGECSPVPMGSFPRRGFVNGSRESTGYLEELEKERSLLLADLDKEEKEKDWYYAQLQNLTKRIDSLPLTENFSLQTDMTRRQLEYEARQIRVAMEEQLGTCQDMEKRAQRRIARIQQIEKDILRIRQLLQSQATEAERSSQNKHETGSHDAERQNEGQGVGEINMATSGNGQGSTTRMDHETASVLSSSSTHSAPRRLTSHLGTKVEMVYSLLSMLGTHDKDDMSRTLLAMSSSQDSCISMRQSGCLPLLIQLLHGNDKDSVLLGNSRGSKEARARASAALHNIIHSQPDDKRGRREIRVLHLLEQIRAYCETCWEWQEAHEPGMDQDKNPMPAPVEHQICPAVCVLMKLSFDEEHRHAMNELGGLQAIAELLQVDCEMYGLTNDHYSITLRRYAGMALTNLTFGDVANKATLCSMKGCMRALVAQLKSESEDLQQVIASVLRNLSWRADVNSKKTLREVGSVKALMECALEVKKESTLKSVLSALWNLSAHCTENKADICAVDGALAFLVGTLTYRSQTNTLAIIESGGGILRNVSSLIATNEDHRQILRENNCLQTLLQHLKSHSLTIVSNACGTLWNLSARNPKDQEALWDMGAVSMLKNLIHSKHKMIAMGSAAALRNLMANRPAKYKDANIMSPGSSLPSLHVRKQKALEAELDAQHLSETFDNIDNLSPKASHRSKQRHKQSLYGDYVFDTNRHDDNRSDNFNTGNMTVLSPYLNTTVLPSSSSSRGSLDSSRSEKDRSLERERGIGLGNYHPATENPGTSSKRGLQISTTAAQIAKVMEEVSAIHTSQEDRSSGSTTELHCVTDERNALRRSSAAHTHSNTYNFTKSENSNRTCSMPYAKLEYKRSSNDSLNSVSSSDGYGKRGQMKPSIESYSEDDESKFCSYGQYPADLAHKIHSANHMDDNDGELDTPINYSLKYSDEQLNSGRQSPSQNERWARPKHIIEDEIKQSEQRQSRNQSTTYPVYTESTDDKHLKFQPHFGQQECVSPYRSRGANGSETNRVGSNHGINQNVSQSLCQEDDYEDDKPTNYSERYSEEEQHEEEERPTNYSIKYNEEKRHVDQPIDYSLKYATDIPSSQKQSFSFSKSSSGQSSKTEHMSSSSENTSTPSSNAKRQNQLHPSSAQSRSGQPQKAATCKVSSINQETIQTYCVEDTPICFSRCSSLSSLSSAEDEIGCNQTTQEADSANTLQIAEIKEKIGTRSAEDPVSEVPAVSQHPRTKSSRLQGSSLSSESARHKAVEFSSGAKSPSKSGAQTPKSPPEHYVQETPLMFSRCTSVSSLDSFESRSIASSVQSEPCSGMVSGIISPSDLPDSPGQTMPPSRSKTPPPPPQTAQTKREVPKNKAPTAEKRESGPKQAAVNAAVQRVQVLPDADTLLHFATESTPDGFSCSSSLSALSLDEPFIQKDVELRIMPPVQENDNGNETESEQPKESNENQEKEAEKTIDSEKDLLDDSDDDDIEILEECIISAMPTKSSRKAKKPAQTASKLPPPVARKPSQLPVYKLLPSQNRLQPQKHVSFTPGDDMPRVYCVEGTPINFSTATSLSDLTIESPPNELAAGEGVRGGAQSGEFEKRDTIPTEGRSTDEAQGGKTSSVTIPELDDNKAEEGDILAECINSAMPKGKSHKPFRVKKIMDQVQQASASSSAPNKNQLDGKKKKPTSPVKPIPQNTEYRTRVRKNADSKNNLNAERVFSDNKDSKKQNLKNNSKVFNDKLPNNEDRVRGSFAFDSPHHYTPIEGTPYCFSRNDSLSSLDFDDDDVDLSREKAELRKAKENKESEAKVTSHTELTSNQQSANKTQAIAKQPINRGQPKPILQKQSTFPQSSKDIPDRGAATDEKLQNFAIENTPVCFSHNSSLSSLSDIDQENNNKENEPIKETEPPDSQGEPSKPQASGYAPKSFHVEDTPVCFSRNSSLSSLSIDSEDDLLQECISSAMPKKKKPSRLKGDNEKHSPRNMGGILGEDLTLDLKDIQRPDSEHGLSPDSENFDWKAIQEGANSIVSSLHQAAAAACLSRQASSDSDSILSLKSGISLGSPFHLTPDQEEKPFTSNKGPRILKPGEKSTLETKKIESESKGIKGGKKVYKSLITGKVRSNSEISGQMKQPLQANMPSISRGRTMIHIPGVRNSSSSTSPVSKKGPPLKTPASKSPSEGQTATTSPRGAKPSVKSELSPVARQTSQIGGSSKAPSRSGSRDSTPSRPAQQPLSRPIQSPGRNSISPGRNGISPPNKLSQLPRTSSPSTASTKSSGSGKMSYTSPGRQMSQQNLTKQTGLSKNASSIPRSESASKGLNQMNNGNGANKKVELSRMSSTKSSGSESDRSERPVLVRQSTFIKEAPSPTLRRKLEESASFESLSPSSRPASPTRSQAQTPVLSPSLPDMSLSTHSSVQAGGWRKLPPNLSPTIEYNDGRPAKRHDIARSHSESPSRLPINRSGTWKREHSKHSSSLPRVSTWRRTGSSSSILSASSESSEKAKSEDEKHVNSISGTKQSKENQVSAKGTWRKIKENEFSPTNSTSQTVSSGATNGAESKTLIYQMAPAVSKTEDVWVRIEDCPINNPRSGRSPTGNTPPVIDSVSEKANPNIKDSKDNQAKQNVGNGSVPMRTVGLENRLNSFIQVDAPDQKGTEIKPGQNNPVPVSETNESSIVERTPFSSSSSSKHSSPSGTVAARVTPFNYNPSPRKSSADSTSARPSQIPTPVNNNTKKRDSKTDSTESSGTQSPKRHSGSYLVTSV

3xFLAG-eGFP-Axin1, sequence (O15169 whole entry): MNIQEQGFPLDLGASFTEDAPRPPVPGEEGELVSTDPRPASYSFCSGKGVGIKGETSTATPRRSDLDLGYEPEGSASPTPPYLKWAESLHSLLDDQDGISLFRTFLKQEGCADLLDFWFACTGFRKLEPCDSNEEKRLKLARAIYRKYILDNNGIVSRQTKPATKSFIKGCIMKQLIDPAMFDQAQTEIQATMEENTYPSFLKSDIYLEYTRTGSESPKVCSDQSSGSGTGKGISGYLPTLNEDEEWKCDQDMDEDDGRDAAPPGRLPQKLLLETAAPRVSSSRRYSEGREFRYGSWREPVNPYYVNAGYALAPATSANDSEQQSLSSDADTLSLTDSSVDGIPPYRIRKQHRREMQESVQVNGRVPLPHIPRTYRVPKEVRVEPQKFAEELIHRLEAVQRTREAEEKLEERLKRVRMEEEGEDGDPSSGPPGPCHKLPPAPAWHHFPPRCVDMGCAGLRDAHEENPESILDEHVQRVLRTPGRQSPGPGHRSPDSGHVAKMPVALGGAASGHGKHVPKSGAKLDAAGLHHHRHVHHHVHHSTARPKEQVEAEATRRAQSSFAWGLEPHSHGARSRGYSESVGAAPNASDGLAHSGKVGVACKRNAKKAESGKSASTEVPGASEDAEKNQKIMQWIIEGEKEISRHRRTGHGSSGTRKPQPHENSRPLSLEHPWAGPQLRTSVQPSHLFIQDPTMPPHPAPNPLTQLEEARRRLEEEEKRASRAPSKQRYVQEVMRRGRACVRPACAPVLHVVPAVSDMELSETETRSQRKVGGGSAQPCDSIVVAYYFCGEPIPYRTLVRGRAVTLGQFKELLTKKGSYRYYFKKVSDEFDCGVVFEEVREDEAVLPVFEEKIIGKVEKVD

Binder	fold decrease in binding after puromycin (3xFLAG-eGFP-Axin1) [fold]	fold reduction of the interaction after puromycin (3xFLAG-mScarlet-APC) [fold]
α-catenin (natural protein, human (endogenous in HEK293 and HeLa), UniProt P35221 1-906, looked up) MTAVHAGNINFKWDPKSLEIRTLAVERLLEPLVTQVTTLVNTNSKGPSNKKRGRSKKAHVLAASVEQATENFLEKGDKIAKESQFLKEELVAAVEDVRKQGDLMKAAAGEFADDPCSSVKRGNMVRAARALLSAVTRLLILADMADVYKLLVQLKVVEDGILKLRNAGNEQDLGIQYKALKPEVDKLNIMAAKRQQELKDVGHRDQMAAARGILQKNVPILYTASQACLQHPDVAAYKANRDLIYKQLQQAVTGISNAAQATASDDASQHQGGGGGELAYALNNFDKQIIVDPLSFSEERFRPSLEERLESIISGAALMADSSCTRDDRRERIVAECNAVRQALQDLLSEYMGNAGRKERSDALNSAIDKMTKKTRDLRRQLRKAVMDHVSDSFLETNVPLLVLIEAAKNGNEKEVKEYAQVFREHANKLIEVANLACSISNNEEGVKLVRMSASQLEALCPQVINAALALAAKPQSKLAQENMDLFKEQWEKQVRVLTDAVDDITSIDDFLAVSENHILEDVNKCVIALQEKDVDGLDRTAGAIRGRAARVIHVVTSEMDNYEPGVYTEKVLEATKLLSNTVMPRFTEQVEAAVEALSSDPAQPMDENEFIDASRLVYDGIRDIRKAVLMIRTPEELDDSDFETEDFDVRSRTSVQTEDDQLIAGQSARAIMAQLPQEQKAKIAEQVASFQEEKSKLDAEVSKWDDSGNDIIVLAKQMCMIMMEMTDFTRGKGPLKNTSDVISAAKKIAEAGSRMDKLGRTIADHCPDSACKQDLLAYLQRIALYCHQLNICSKVKAEVQNLGGELVVSGVDSAMSLIQAAKNLMNAVVQTVKASYVASTKYQKSQGMASLNLPAVSWKMKAPEKKPLVKREKQDETQTKIKRASQKKHVNPVQALSEFKAMDSI	~10	–
β-catenin (natural protein, human (endogenous in HEK293 and HeLa), UniProt P35222 1-781, looked up) MATQADLMELDMAMEPDRKAAVSHWQQQSYLDSGIHSGATTTAPSLSGKGNPEEEDVDTSQVLYEWEQGFSQSFTQEQVADIDGQYAMTRAQRVRAAMFPETLDEGMQIPSTQFDAAHPTNVQRLAEPSQMLKHAVVNLINYQDDAELATRAIPELTKLLNDEDQVVVNKAAVMVHQLSKKEASRHAIMRSPQMVSAIVRTMQNTNDVETARCTAGTLHNLSHHREGLLAIFKSGGIPALVKMLGSPVDSVLFYAITTLHNLLLHQEGAKMAVRLAGGLQKMVALLNKTNVKFLAITTDCLQILAYGNQESKLIILASGGPQALVNIMRTYTYEKLLWTTSRVLKVLSVCSSNKPAIVEAGGMQALGLHLTDPSQRLVQNCLWTLRNLSDAATKQEGMEGLLGTLVQLLGSDDINVVTCAAGILSNLTCNNYKNKMMVCQVGGIEALVRTVLRAGDREDITEPAICALRHLTSRHQEAEMAQNAVRLHYGLPVVVKLLHPPSHWPLIKATVGLIRNLALCPANHAPLREQGAIPRLVQLLVRAHQDTQRRTSMGGTQQQFVEGVRMEEIVEGCTGALHILARDVHNRIVIRGLNTIPLFVQLLYSPIENIQRVAAGVLCELAQDKEAAEAIEAEGATAPLTELLHSRNEGVATYAAAVLFRMSEDKPQDYKKRLSVELTSSLFRTEPMAWNETADLGLDIGAQGEPLGYRQDDPSYRSFHSGGYGQDALGMDPMMEHEMGGHHPGADYPVDGLPDLGHAQDLMDGLPPGDSNQLAWFDTDL	~10	~4
